Experimental data: US20230039941A1, “ENZYME ENHANCED ROOT UPTAKE OF AGROCHEMICAL ACTIVE COMPOUND” (BASF SE, priority 2019, published 2023)
Numbering of substitutions follows the chain as printed. Marks after values point to notes of the source that are not given here.

What was measured:
[1] = test system: wheat seedlings; test: Clothianidin uptake in wheat seedlings (cotyledon analysis) after seed treatment with cutinases; type: in vivo, Triticum sp.; conditions: for Average of clothianidin detected on 15 pairs of wheat cotyledons: wheat seed treatment with clothianidin plus enzyme-containing cell extract; for % Clothianidin uptake in wheat cotyledons: wheat seed treatment, one way ANOVA test (P = 0.002); for percent clothianidin uptake in wheat seedlings, effect of cutinase seed treatment: P=0.002
Experimental: a. Seed treatment: Formulations were diluted and enzymes were dissolved in HPLC water. Solutions were made and mixed immediately before each treatment. For each treatment, 100 g of spring wheat seeds (Triticum sp.) were placed in a 1-L bowl of a HEGE 11 seed treater. Treatment slurry was applied to spinning seeds in an application volume of 1.5 mL including 2.05 mg of lyophilized enzyme-containing cell extracts and seeds were spun until dry. Directly after treatment, seeds were transferred to paper seed pouches and stored in a cooler filed with ice packs until planting.
b. Plant incubation: Before seed treatment, 24-well plates were filled with RediEarth potting mixture sifted through a 3.35-mm mesh sieve. Tap water was uniformly applied to the soil surface using a conical spray nozzle until just before complete saturation of soil column (˜55 mL/plate). The soil was tamped down to a level of 1 cm below plate surface. One hour after treatment, one seed was placed on the soil surface of each well. RediEarth was sifted directly over the wells and the soil line was levelled to the plate surface. The soil surface was moistened again with ˜22 mL water/plate. Plates were then held in a randomized complete block design in an incubator at 25° C., 50% RH containing two FloraSun (F25T8 Plant Growth) lights at 14L:10D. Replication was 10 plates per treatment.
d. Cotyledon analysis: Fifteen excised pairs of wheat cotyledons were extracted (10× replicates) with acetonitrile solvent (10 mL, containing 1% acetic acid) by homogenization. The homogenate is first centrifuged to bring down the solvent/material sticking to the cap using Beckman Coulter (Allegra X-14R) centrifuge for 3 min at 3000 RPM. The collected homogenate is then treated with anhydrous magnesium sulfate (˜3500 mg), sodium acetate (˜220 mg) and vortexed well (˜30s) before further centrifugation for the same duration as above. The supernatant clear solution is then transferred into appropriate vials for LC/MS analysis without further dilution.
Control samples were prepared by spiking a known amount std clothianidin into 15 pairs of cotyledons (10 replicates) collected from the seedlings of untreated […] seeds and homogenized and processed as above. The recovery of the AI was quantified from the LC/MS data and then used to normalize the results from treated cotyledon sample sets.
(§1) LCMS analyses were performed using Thermo Fisher Scientific Q-Exactive Mass Analyzer with electrospray positive mode of ionization. Thermo Fisher Scientific Surveyor MS Plus Pump and autosampler were used for the chromatographic runs through a column (Sonoma-C18, 2.1×100 mm, 5 u). The gradient started with 98:2 Water/MeOH (containing 4 mM ammonium formate and 0.1% formic acid) and ending with 98:2 MeOH/Water in about 10 min.

[2] = Uptake of the active ingredient in canola seedling cotyledons after seed treatment with or without cutinase; type: in vivo; conditions: canola, cotyledons (leaf), other: seed treatment (slurry applied to seeds), 20.1 μg/seed; Cotyledon analysis seven days after planting; normalized using mean % Al recovery (90.9%) and mean % coating efficiency; read-out: Mean Al Uptake (ng/mg leaf)
Experimental: (§2) Canola seeds were treated with formulated product diluted in water by spinning 100 g seed in a 1-liter HEGE bowl while applying treatment slurry. Seeds were spun until dry.
(§3) On the day of planting, 24-well plates (10 mL, nonsterile) were filled with a highly organic plug & seedling mix. Water was uniformly applied to the soil surface using a spray nozzle until just before complete saturation of soil column. Soil was tamped down to a level of 1 cm below plate surface. One treated seed was placed on the soil surface of each well and then covered with potting mixture leveled to the plate surface. The top soil surface was sprayed once more to moisten. Plates were then held in an incubator and top-watered as needed with fertilizer water (NPK 16-4-20-3(Ca)-1(Mg)) via spray nozzle. Seven days after planting, both cotyledons from ten plants were sampled for analysis by clipping the point where cotyledon meets stem. Replication was 10×.
(§4) The seed/excised cotyledons were extracted with acetonitrile solvent (3 mL, containing 1% acetic acid) by homogenization in Teflon tubes using 2010 Geno/Grinder (Spex Sample Prep) for 2 min at 1200 RPM. The homogenate was then mixed with anhydrous sodium sulphate (˜600 mg), sodium acetate (˜100 mg) and vortexed well before centrifugation using Beckman Coulter (Allegra X-14R) centrifuge for 5 min at 3000 RPM. The clear supernatant was then transferred into appropriate vials for LC/MS analysis.
as §1, with “Extractive Orbitrap” for “Q-Exactive”, “μm).” for “u).”

[3] = test system: canola seedlings; test: as above; type: in vivo; conditions: for Al Uptake (%) / Mean Al Uptake (ng/mg leaf): Cotyledon analysis seven days after planting; for Al Uptake (%): calculated based on spiked control, 22340 ng/replicate; for Mean Al Uptake (ng/mg leaf): normalized using mean % Al recovery (90.9%) and mean % coating efficiency
Experimental: as §2, §3, §4
as §1, with “Extractive Orbitrap” for “Q-Exactive”, “μm).” for “u).”

In the case of CN/C(=N\[N+](=O)[O-])NCc1cnc(Cl)s1 [clothianidin, reference compound], the “Average of clothianidin detected on 15 pairs of wheat cotyledons” value (shortened to “Average of clothianidin detected”) [1] is reported as 9.4 ± 2.0 ng and the “% Clothianidin uptake in wheat cotyledons” value (“% Clothianidin uptake” for short) [1] is reported as 0.39 ± 0.08^a %.

With C[n+]1c([O-])c(-c2ccccc2)c(=O)n2c1SC[C@@H]2c1cnc(Cl)s1 [(3R)-3-(2-chlorothiazol-5-yl)-8-methyl-5-oxo-6-phenyl-2,3-dihydrothiazolo[3,2-a]pyrimidin-8-ium-7-olate] the concentration at 7 days after planting [2] was 2290 ng/g and the “Al Uptake (%)” value [3] was 0.40%.

B1: CUT-4: Cutinase according to SEQ No. 4, Pseudomonas mendocina (94%), NCBI WP_096825365.1 (protein)
chain: APLPDTPGAPFPSVSNFDRSGPYATTSRSEGPNCRVYRPATLGQNGVRHPIVLWGNGTGTGPTAYSGLLSHWASHGFVVAAAETSNAGTGEQMLACLDYLVQESNRTYGTYVGVLNTGRVGTSGHSQGGGGSIMAGQDERVSVTAPIQPYTIGLGHDSASQRNQQGPMFLMSGGGDTIAFPYLNAQPVYTRANVPVFWGERRYVSHFEPVGDGGAYRGPSTAWFRYHLMEDETARSTFYGRFCGLCTSVLWTEERKDIE
modifications: Pseudomonas sp. SST3; Cutinase 9
For B1, the “percent clothianidin uptake in wheat seedlings, effect of cutinase seed treatment” value (“percent clothianidin uptake” for short) [1] was “improvement was not significant”, the “Average of clothianidin detected” value [1] was 10.8 ± 2.1 ng and the “% Clothianidin uptake” value [1] was 0.44 ± 0.09^a %. The “Al Uptake (%)” value [3] was 0.43% and the “Mean Al Uptake (ng/mg leaf)” value [3] was 2.16 ng/mg leaf.

B2: CUT-1: Cutinase according to SEQ No. 1, biological source Pseudomonas mendocina (US5545547A) (protein, listed as Pseudomonas mendocina)
chain: APLPDTPGAPFPAVANFDRSGPYTTSSQSEGPSCRIYRPRDLGQGGVRHPVILWGNGTGAGPSTYAGLLSHWASHGFVVAAAETSNAGTGREMLACLDYLVRENDTPYGTYSGKLNTGRVGTSGHSQGGGGSIMAGQDTRVRTTAPIQPYTLGLGHDSASQRRQQGPMFLMSGGGDTIAFPYLNAQPVYRRANVPVFWGERRYVSHFEPVGSGGAYRGPSTAWFRFQLMDDQDARATFYGAQCSLCTSLLWSVERRGL
modifications: Cutinase 1
For B2, the “percent clothianidin uptake” value [1] was “significantly enhanced”, the “Average of clothianidin detected” value [1] was 12.5 ± 3.2 ng and the “% Clothianidin uptake” value [1] was 0.59 ± 0.15^b %. The “Al Uptake (%)” value [3] was 0.60%, the “Mean Al Uptake (ng/mg leaf)” value [3] was 3.04 ng/mg leaf and the “mean AI uptake (ng/mg leaf) compared with no enzyme control” value ([3]; canola cotyledon analysis) was “significantly higher than no enzyme control”. For the same molecule, the “percent of AI uptake compared with no enzyme control” value ([3]; canola cotyledon analysis) was “significantly higher than no enzyme control”.

B3: CUT-2: Cutinase according to SEQ No. 2, biological source Pseudomonas mendocina (PDB 2FX5_A) (protein, listed as Pseudomonas mendocina)
chain: B2 chain with T25V
modifications: Cutinase 2
With B3 the “percent clothianidin uptake” value [1] was “improvement was not significant”, the “Average of clothianidin detected” value [1] was 11.9 ± 3.4 ng and the “% Clothianidin uptake” value [1] was 0.53 ± 0.15^ab %. The “Al Uptake (%)” value [3] was 0.39% and the “Mean Al Uptake (ng/mg leaf)” value [3] was 1.87 ng/mg leaf.
